Source: paper PMC4591472 (Microbiology (Reading, England), 2015)

T1: FloT tagged to the T25 catalytic domain of adenylate cyclase (B. subtilis NCIB3610, UniProt O32076 1-509)
T1 sequence (looked up): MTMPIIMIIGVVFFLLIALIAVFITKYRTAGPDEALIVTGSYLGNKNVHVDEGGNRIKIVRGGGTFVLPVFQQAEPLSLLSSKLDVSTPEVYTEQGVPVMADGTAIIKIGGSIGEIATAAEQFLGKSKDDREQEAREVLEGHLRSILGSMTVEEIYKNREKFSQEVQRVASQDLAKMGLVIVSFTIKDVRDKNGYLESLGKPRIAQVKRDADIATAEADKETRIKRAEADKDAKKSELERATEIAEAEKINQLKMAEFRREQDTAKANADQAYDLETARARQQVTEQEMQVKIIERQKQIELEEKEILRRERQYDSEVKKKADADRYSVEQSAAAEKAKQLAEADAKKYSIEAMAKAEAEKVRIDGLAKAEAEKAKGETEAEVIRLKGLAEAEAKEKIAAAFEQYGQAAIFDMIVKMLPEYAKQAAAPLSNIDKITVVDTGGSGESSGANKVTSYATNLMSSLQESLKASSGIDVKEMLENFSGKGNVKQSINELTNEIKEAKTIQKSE

B1: KinC, bacterial two-hybrid fusion (enzyme, B. subtilis NCIB3610, UniProt P39764 1-428, looked up)
chain: MRKYQARIISIILAMIFIMFWDYLFYFIGKNPINWPVDIVYTAVTLVSVWMLAYYIDEKQQLVKKMKDNEWKYKQLSEEKNRIMDNLQEIVFQTNAKGEITYLNQAWASITGFSISECMGTMYNDYFIKEKHVADHINTQIQNKASSGMFTAKYVTKNGTIFWGEVHYKLYYDRDDQFTGSLGTMSDITERKEAEDELIEINERLARESQKLSITSELAAGIAHEVRNPLTSVSGFLQIMKTQYPDRKDYFDIIFSEIKRIDLVLSELLLLAKPQAITFKTHQLNEILKQVTTLLDTNAILSNIVIEKNFKETDGCMINGDENQLKQVFINIIKNGIEAMPKGGVVTISTAKTASHAVISVKDEGNGMPQEKLKQIGKPFYSTKEKGTGLGLPICLRILKEHDGELKIESEAGKGSVFQVVLPLKSDS
B2: KinC-CFP (enzyme, B. subtilis, UniProt P39764 1-428, looked up)
chain: B1 chain
B3: ResE, bacterial two-hybrid fusion (enzyme, B. subtilis NCIB3610, UniProt P35164 1-589, looked up)
chain: MKFWKSVVGKLWFTILSLVLIVLFILTVLLLEFIENYHVEEAENDLTQLANKVAVILENHEDQALARSITWELADNLTSIAIIQDEKNHWYSPNDKNRLSSITVEQIQHDKDLNKALKDHKKVSKRTGLSDTDTDNERLIVGVPYEKDGKKGMVFLSQSLLAVKDTTKHTTRYIFLAAGIAIVLTTFFAFFLSSRVTYPLRKMREGAQDLAKGKFDTKIPILTQDEIGELATAFNQMGRQLNFHINALNQEKEQLSNILSSMADGVITINIDGTILVTNPPAERFLQAWYYEQNMNIKEGDNLPPEAKELFQNAVSTEKEQMIEMTLQGRSWVLLMSPLYAESHVRGAVAVLRDMTEERRLDKLREDFIANVSHELRTPISMLQGYSEAIVDDIASSEEDRKEIAQIIYDESLRMGRLVNDLLDLARMESGHTGLHYEKINVNEFLEKIIRKFSGVAKEKNIALDHDISLTEEEFMFDEDKMEQVFTNLIDNALRHTSAGGSVSISVHSVKDGLKIDIKDSGSGIPEEDLPFIFERFYKADKARTRGRAGTGLGLAIVKNIVEAHNGSITVHSRIDKGTTFSFYIPTKR
B4: KinB, bacterial two-hybrid fusion (enzyme, B. subtilis NCIB3610, UniProt Q08430 1-428, looked up)
chain: MEILKDYLLHICFILFPILLYQVFWLGKPAILVPKINSGLVTLFACGASVLCIIFPIHEMDYIQYGLQMIPVIICLFYISTASGLTVAASVLCFELLFYEPSAMFVFTLLPFLIIIPILFQKKWPFMSKAKKLLLSLLISCVEIFLFFASSWILSALNILNFQKSGIFVYEAAVSGLFRSSVLLLSIYIIESIAENIALRSQLIHSEKMTIVSELAASVAHEVRNPLTVVRGFVQLLFNDETLQNKSSADYKKLVLSELDRAQGIITNYLDMAKQQLYEKEVFDLSALIKETSSLMVSYANYKSVTVEAETEPDLLIYGDATKLKQAVINLMKNSIEAVPHGKGMIHISAKRNGHTIMINITDNGVGMTDHQMQKLGEPYYSLKTNGTGLGLTVTFSIIEHHHGTISFNSSFQKGTTVTIKLPADLPH
B5: KinD, bacterial two-hybrid fusion (enzyme, B. subtilis NCIB3610, UniProt O31671 1-506, looked up)
chain: MLERCKLKILKGACGRVKLYIILVVIPAIVISFFVYEKEKDTIAAEHKQEASVLLNLHRNKINYLIGETMARMTSLSIAIDRPVDIKKMQSILEKTFDSEPRFSGLYFLNAKGDVTASTTELKTKVNLADRSFFIKAKETKKTVISDSYSSRITGQPIFTICVPVLDSKRNVTDYLVAAIQIDYLKNLINLLSPDVYIEVVNQDGKMIFASGQASHAEDQKPVSGYLDDISWNMKVYPNPVTIEELSKSLVLPLSCIIVLLNILFILVLYYLLKRQTQLERSENEAQKLELIGTLAASTAHEIRNPLTGISGFIQLLQKKYKGEEDQLYFSIIEQEIKRINQIVSEFLVLGKPTAEKWELNSLQDIIGEIMPIIYSEGNLYNVEVELQYLTEQPLLVKCTKDHIKQVILNVAKNGLESMPEGGKLTISLGALDKKAIIKVVDNGEGISQEMLDHIFLPFVTSKEKGTGLGLVVCKRIVLMYGGSIHIESEVRRGTEVTITLPVSAS

Legend:
[1] = molecular target: T1, FloT tagged to the T25 catalytic domain …; test: two-hybrid
[2] = molecular target: the molecule itself; test: two-hybrid
[3] = molecular target: the molecule itself; test: native gel or EMSA

Binder	β-galactosidase activity [1] [Miller Units]	β-galactosidase activity [2] [Miller Units]	stoichiometry N [3]
B1	> 3500	~1500	
B2			2
B3	~1600		
B4		~5500	
B5	~1100	~1500	
